Reference: the supplement of paper PMC11502859

What follows are substances tested on HEK293T (assay: median enrichment of reporter reads in eGFP-reduced (low/intermediate) vs eGFP-high sorted cells (eGFP-extension fusion abundance) (ratio); higher = stronger loss of eGFP-fusion protein abundance (more destabilising extension)).
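Further: lentiviral eGFP-IRES-mCherry reporter pool sorted by FACS 96 h post-transduction, gated on mCherry-high cells, Illumina read counts normalized per million, median across four biological replicates.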

Substance | median enrichment
SKQVTDLF [FOXN3] | 0.53
SKRGHMESGGHLDD [PTGR1] | 0.345
SKRPGRKPPPLKVVFVTVLWSIVLKMGNYILLCQGQQTPAVKGIPSARRLFGACMFIAPARPDRGLLHKPCLVHFFTCKGTEC [AHNAK] | 7.93
SKTNTFYLWEAVPRFQPEL [ZBTB21] | 11.3
SKTWPENPQVLQRKTELGKGESWKDGAD [ABHD15] | 0.348
SKWADE [PLPP5] | 0.25
SLCC [POLQ] | 0.62
SLCFV [E2F3] | 2.42
SLEWTTAKLAPSSDRKPPCVGDCRHAK [TM9SF4] | 1.73
SLFSLTYRMLV [ZNF639] | 6.9
SLIRLAT [AK6] | 9.3
SLKPITVLTAQWN [KCNA2] | 10.7
SLLLVPK [RBKS] | 1.87
SLREAC [ZNF672] | 0.708
SLRLQRLLCIAFLLQCKERDQGSQEMFAQNGR [GDNF] | 8.43
SLRSLRAGPSAAGSCLNTSLDMARTHRDTGQDQPCLWRQDTTIWPMAVTSCRVQSQTGNHHLRQDLPASFTFLISRALPPILC [SLC22A13] | 8.01
SLTVFHKEDV [ATP2A2] | 0.983
SLYGAICPPSPSRTLEGTSAPAGLGPPLSLLQASWCLHTSGSWPRKSQQEQGMGEGRCHTTWR [CISH] | 4.49
SLYKKVGTMAAG [Degron KLHDC3] | 7.34
SLYQKPEVE [UGT2B17] | 0.724
SLYRLRR [ST3GAL6] | 3.73

Substance | median enrichment
SMALVALEWDPALTSPRANLGGAEGALGHRKQGKKGRSCGEMTLIFDCYPNLDL [NDRG2] | 7.41
SMFESHASLWKQYAM [STAT5A] | 0.883
SMKCLS [FANCI] | 0.846
SML [CTHRC1] | 3.13
SMLIP [ZMYND15] | 0.546
SMLLPGLQKLHGHSSVIGLSLITKITAQDHLPEKHPLA [PLCB1] | 19.1
SMSSDWRIRKIYGPTFDAIF [ZCCHC4] | 8.58
SNGSI [PHF20L1] | 0.369
SNIRFVIRNTLCLLWSCARWPQMDYRRLQRTRQMEH [BCL2L14] | 16.6
SNIWLRCHWLRPTRSSFGWCRDHMHIIPGINTELFVNIAAPVF [LRRC6] | 12.4
SNIYLK [TEX12] | 0.685
SNLSPRRPEVNRHLGRGRACV [NAXD] | 1.3
SNNQQYSRSNQHHHVIMVLWHICNIKILN [ACOX2] | 5.11
SNQFLGLTAM [BTN2A1] | 0.367
SNRIEQNRIE [PCSK5] | 0.616
SNSLRLAAPLGFLPCRTCLEVLPGGGGRGRLDLLS [AQP6] | 3.45
SNTAFNWELETH [PREPL] | 0.178
SNVIPLKRKMNNTLN [HRG] | 0.435
SNWGAFSPEQRGPRHAVERLHLPPFPGQQD [COX14] | 0.854
SPAPHHPQEHSTHHRQPLETSYMSLGAEREVPSPCRTRSCMCLTQVWTGGHLGAGQGHPSLHIT [RABEPK] | 7.59
SPARRPSQRVTRPRGRTDSSDSPQ [EPS8L1] | 0.338

Substance | median enrichment
SPELTAQSVDRASVRRHRERPGGSLSMDSQTAGEHLGQPPEGPLLDPRENLLALAVILE [ICOSLG] | 2.2
SPERSQDPSRQHQLTDALVVPPSSPDCARSAVPSSGHLSSLWVPPHPSPC [RBP5] | 3.81
SPF [SDHD] | 0.337
SPGEKL [ZNF322] | 0.169
SPHPAPPPPRPTRRPPDSSPGASSATPSLHPWGPSPPACTEQGLGVSWEA [ITGB4] | 0.621
SPIQKFFLILFHLPISC [TRIO] | 7.34
SPLL [PIK3C2G] | 0.449
SPPGPSPGSGTLVPNPERSALLP [VPS35L] | 0.894
SPQDQGKEDGRTGAKLVGGRGGGGRDDRPWMCPQGPRSEVSTVLPARAPVPPLAATPSPIISFAPRLLRGAPVLAPAPTSAPD [FOXP3] | 1.18
SPQGRAATRRDMPGRGQDKMQTFFFF [APOL1] | 1.16
SPRSWILQCINKRSQAGFISETIN [SGCD] | 39.2
SPSASSRKNKKSRTWQVFSICCKYVY [FBXL13] | 8.34
SPSDYIFNTTPPTPSWVRVSPVCPRPIKSTCHC [GPS2] | 5.9
SPWGGGKG [C6orf47] | 1.46
SPWSLVPGARASPPFHQPHRPLRGWSPLPGHGGRIPLGWSRLEKLLCQVCSLSAIVTSLPRGGDHITKRNSPFSKG [TCF21] | 3.11
SPYPVPRCTNRWGPAPFLPGPHGPLSQEPRPLTSCPLEMVQHSGIYHPHLGPLQPPIKG [MYH14] | 5.6
SPYRKAGRL [BCKDHB] | 19.5
SQAGMSPGSLARVGPQ [TXN2] | 0.38
SQDLVGGTGNWGWEGGNKDIWPS [RNF25] | 1.76
SQESRASLPRIAFIPKFAWK [CMBL] | 2.33
